Literature values in publication PMC10217895.
pKd: −log10 of the molar value. Read-outs that look alike come from different tables or passages of the source.

Columns and labels:
[1] = biological target: von Willebrand factor (Homo sapiens) (UniProt P04275)
SIGLEC5 (Homo sapiens) = SIGLEC5 (Homo sapiens) (UniProt O15389)
LRP1 (Homo sapiens) = LRP1 (Homo sapiens) (UniProt Q07954)
LDLR (Homo sapiens) = LDLR (Homo sapiens) (UniProt P01130)
[2] = biological target: von Willebrand factor (Homo sapiens) (UniProt P04275); remark: listed apart in the source
ASGPR (Homo sapiens) = ASGPR (Homo sapiens) (UniProt P07306)
SCARA5 (Homo sapiens) = SCARA5 (Homo sapiens) (UniProt Q6ZMJ2)
Sequence of SCARA5 (Homo sapiens) (Q6ZMJ2 whole entry): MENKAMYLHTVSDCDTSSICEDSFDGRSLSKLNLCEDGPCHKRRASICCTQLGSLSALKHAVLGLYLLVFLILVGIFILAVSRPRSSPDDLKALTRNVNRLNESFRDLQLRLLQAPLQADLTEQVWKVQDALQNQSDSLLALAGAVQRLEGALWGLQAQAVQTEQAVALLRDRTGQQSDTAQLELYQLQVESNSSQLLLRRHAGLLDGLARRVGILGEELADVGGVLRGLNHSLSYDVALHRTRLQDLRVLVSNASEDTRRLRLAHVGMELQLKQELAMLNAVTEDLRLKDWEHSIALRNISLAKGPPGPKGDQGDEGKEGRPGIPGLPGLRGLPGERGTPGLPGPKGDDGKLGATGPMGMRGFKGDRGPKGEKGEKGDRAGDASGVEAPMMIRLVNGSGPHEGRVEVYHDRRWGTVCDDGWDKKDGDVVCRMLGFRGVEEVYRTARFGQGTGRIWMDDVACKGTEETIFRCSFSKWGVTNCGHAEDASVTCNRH

Sequence of Factor VIII (P00451 760-1332): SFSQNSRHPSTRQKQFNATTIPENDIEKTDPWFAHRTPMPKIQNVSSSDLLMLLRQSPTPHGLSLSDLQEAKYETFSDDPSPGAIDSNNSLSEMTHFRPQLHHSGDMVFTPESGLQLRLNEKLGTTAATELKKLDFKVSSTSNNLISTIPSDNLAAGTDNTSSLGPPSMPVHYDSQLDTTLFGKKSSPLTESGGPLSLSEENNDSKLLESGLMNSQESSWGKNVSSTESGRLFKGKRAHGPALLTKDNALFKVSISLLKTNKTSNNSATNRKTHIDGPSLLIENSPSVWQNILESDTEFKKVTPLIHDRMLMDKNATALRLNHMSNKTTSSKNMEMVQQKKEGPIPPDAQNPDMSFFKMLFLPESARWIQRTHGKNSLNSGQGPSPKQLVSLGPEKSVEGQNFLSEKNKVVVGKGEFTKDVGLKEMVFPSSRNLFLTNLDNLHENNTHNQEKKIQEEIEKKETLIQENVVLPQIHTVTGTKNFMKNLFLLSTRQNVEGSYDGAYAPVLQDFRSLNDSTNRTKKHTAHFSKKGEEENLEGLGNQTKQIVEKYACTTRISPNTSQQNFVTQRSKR
Sequence of FVIII-KB013bv (P00451 20-759): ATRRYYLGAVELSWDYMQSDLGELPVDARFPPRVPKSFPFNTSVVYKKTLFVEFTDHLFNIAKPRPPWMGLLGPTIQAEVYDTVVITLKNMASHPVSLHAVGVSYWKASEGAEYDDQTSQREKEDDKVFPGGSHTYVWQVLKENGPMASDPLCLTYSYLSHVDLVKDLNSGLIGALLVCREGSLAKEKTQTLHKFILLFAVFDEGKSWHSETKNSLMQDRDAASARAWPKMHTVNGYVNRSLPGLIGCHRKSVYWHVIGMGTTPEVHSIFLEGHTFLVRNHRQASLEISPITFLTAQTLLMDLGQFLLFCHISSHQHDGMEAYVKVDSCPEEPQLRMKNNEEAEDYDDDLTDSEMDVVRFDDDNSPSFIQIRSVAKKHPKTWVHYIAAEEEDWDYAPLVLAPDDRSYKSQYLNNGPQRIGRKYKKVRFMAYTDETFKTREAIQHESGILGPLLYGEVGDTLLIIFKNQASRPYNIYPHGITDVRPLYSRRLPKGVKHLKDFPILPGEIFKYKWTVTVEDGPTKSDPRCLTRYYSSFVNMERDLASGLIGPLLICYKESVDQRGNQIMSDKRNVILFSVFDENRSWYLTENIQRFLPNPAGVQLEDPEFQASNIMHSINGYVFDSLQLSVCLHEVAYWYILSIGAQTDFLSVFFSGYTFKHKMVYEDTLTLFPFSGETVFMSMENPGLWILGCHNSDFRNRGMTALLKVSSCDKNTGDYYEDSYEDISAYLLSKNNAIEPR
Sequence of FVIII-KB013bv (P00451 1668-2351): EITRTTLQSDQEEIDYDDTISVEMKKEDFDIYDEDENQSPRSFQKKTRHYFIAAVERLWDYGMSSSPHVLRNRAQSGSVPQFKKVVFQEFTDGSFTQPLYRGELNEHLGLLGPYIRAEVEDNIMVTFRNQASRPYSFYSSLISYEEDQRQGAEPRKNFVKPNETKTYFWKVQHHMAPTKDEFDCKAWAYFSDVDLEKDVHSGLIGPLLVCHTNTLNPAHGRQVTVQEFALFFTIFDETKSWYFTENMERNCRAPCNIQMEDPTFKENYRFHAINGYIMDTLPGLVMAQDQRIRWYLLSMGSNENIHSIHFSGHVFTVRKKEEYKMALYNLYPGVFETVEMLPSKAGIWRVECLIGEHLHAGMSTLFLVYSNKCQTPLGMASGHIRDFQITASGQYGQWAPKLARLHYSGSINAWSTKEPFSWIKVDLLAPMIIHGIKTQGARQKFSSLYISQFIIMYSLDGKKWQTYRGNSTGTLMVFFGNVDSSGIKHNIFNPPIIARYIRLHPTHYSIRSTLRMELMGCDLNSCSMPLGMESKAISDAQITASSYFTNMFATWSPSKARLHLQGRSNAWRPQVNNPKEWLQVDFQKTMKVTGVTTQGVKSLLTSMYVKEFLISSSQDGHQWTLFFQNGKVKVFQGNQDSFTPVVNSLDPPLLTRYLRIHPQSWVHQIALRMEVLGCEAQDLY
Sequence of ASGPR (Homo sapiens) (P07306 whole entry, chain 1 of 2): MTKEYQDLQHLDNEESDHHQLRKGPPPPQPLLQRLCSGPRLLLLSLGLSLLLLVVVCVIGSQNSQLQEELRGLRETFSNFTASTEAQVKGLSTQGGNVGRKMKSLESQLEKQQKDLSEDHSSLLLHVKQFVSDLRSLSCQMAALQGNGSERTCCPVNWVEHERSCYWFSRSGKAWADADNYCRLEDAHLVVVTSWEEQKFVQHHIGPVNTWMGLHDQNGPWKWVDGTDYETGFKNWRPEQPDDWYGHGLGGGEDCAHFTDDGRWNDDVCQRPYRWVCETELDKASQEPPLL
Sequence of ASGPR (Homo sapiens) (P07307 whole entry, chain 2 of 2, further chain): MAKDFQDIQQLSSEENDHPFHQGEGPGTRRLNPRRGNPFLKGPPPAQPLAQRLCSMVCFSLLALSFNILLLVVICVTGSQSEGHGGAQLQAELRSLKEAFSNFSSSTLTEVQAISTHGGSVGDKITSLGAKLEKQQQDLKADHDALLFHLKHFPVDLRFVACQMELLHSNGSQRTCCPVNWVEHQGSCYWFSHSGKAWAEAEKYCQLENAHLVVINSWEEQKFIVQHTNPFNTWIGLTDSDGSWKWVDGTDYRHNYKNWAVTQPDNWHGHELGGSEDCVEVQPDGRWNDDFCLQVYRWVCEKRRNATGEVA
Sequence of SIGLEC5 (Homo sapiens) (O15389 17-441): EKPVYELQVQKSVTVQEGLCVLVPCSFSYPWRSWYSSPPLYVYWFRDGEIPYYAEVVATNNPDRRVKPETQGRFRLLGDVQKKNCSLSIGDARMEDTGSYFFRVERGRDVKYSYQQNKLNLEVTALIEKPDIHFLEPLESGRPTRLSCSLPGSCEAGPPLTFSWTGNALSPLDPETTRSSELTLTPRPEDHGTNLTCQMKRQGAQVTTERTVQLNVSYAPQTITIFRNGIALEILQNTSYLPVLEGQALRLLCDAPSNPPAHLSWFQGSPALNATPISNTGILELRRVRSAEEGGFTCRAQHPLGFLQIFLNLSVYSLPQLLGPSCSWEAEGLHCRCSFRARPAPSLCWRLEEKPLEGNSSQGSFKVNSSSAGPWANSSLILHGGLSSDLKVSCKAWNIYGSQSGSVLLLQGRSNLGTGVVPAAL
Sequence of LDLR (Homo sapiens) (P01130 22-788): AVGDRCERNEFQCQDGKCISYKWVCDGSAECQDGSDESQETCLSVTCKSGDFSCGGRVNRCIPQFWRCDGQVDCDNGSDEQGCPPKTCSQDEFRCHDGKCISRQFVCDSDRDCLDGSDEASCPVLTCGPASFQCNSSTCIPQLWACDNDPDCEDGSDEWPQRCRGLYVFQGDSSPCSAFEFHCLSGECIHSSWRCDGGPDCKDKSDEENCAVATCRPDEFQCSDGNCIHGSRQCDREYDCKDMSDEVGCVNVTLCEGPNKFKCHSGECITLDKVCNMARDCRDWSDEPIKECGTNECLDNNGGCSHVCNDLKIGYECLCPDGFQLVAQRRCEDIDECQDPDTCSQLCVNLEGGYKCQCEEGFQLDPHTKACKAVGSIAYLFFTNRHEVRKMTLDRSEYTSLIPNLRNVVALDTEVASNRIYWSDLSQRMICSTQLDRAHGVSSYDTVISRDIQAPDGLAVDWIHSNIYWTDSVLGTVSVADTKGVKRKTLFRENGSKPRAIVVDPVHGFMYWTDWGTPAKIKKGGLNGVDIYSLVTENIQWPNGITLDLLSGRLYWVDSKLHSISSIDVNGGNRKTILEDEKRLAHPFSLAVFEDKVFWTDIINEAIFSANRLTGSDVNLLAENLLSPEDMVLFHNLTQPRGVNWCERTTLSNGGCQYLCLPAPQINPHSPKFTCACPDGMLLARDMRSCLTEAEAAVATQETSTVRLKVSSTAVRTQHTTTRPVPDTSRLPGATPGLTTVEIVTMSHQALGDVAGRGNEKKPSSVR

## FVIII-KB013bv (from UniProt P00451)
[1]
  pKd: 10.89

## Factor VIII (from UniProt P00451)
SIGLEC5 (Homo sapiens)
  pKd: 8.10
LRP1 (Homo sapiens)
  pKd: 7.70
LDLR (Homo sapiens)
  pKd: 7.35
[2]
  pKd: 9.30
ASGPR (Homo sapiens)
  pKd: 8.70

## von Willebrand factor (from UniProt P04275)
SCARA5 (Homo sapiens)
  pKd: 9.30
